Experiment [1] concerns the target T1, recombinant human nectin-4 (human, UniProt Q96NY8 32-349).
T1 construct: nectin-4, human, recombinant; also called complete extracellular domain of nectin-4; source: bought: R&D Systems (Catalog number 2659-N4)
T1 sequence (looked up): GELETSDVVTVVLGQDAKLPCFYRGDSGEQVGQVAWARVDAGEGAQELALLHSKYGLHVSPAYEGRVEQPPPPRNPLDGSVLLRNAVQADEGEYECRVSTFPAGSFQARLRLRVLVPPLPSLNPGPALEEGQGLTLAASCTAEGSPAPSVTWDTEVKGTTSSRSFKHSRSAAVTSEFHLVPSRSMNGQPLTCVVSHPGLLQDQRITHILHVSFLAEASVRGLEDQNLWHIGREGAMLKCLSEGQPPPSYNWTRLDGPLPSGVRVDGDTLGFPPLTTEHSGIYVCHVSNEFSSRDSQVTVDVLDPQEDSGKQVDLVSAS
Nature of the experiment: SPR; Biacore T200, human nectin-4 immobilised on CM5 chip by amine coupling, peptides as analytes, single-cycle kinetics, 25 °C, HBS-P+ pH 7.4, no DMSO, 1:1 binding model. The following applies: both partners purified.

Experiment [2] addresses T1, recombinant human nectin-4. Briefly: fluorescence polarisation; fluorescence anisotropy, competition: 1 nM probe 1a, 20 nM nectin-4, 10 concentrations of nonlabeled peptide, 37 °C, HEPES buffer pH 7.4, 1% DMSO; IC50 transformed into Kd (Nikolovska-Coleska equation, Kd of 1a 0.94 nM). The following applies: both partners purified.
Experiment [3] concerns the target T2, nectin-4 on intact HT-1376 cells (human (endogenous in HT-1376), UniProt Q96NY8 32-510).
T2 construct: also called cellular nectin-4
T2 sequence (looked up): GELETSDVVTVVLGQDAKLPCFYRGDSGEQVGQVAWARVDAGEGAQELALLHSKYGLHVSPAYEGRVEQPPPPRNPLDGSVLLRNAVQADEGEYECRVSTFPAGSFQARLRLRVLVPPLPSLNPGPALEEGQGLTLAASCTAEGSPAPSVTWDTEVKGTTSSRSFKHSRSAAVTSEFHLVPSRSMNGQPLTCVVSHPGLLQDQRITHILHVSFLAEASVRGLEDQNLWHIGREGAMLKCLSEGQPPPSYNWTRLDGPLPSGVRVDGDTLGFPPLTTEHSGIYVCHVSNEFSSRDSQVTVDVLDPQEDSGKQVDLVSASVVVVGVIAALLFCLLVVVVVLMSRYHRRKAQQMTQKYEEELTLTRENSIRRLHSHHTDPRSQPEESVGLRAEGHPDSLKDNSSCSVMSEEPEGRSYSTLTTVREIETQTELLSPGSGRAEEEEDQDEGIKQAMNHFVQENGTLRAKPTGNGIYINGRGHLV
Nature of the experiment: radioligand binding; intact HT-1376 cells, 10 nM radioligand, 37 °C, 1 h, PBS wash; nonspecific binding with 1 µM 1d (3a for [68Ga]Ga-8d); specific binding in fmol/mg protein. As to conditions: one partner purified.

Experiment [4] addresses T2, nectin-4 on intact HT-1376 cells. Nature of the experiment: radioligand binding; saturation binding on intact HT-1376 cells, 10 radioligand concentrations (0.156-80 or 0.321-160 nM), 37 °C, 1 h, PBS wash; nonspecific with 1 µM 1d; apparent (covers binding and putative internalisation). The following applies: one partner purified.

Numbered stars: 1 amine (or outer) side, 2 acyl side, 3 side chain; on linkers, the order of the positions; unused ones are H or OH. Bridge positions count the residues as written; N and C are the ends. Square brackets hold non-standard residues; d marks the D form. * marks the point of attachment. (R)‑NODAGA = O=C(O)CN1CCN(CC(=O)O)CCN([C@H](CCC(=O)*)C(=O)O)CC1; DOTA = O=C(O)CN1CCN(CC(=O)O)CCN(CC(=O)*)CCN(CC(=O)O)CC1; TATA = O=C(CC[*:1])N1CN(C(=O)CC[*:2])CN(C(=O)CC[*:3])C1; Ser(et) = O-ethylserine, CCOC[C@H](N[*:1])C(=O)[*:2]; Mox = methoxinine, COCC[C@H](N[*:1])C(=O)[*:2]; 1Nal = N[C@@H](Cc1cccc2ccccc12)C(=O)O; 2Nal = N[C@@H](Cc1ccc2ccccc2c1)C(=O)O; Hyp = O=C(O)[C@@H]1C[C@@H](O)CN1; hArg = N=C(N)NCCCC[C@H](N)C(=O)O; Met(O) = CS(=O)CC[C@H](N)C(=O)O; SeMet = C[Se]CC[C@H](N)C(=O)O; Nle = CCCC[C@H](N)C(=O)O

For the molecule {DOTA}-CP[1Nal][dD]CM[hArg]DWSTP[Hyp]WC-NH2 (linker 1-5-15 via TATA) [1f], in experiment [1], the Kd was 1.31 nM, the koff worked out at 0.0115 s⁻¹ and the kon stood at 8.76e+06 M⁻¹ s⁻¹. For the same molecule, the Kd in experiment [2] was 7.22 nM.
The matching figures for {(R)‑NODAGA}-CP[2Nal][dD]CMRDWSTP[Hyp]WC-NH2 (linker 1-5-15 via TATA) [8a]: 63 nM, 0.0433 s⁻¹, 680000 M⁻¹ s⁻¹ and 21 nM.
As to {(R)‑NODAGA}-CP[2Nal][dD]CMRDWSTP[Hyp]WC-NH2 (linker 1-5-15 via TATA; also: NODAGA complexed with 64Cu) [[64Cu]Cu-8a], the “specific cell binding at 10 nM radioligand” value (“specific cell binding” for short) in experiment [3] is 15.6 fmol/mg. Further, in experiment [4], the Kd is 51.7 nM.
{(R)‑NODAGA}-CP[1Nal][dD]CM[hArg]DWSTP[Hyp]WC-NH2 (linker 1-5-15 via TATA; also: NODAGA complexed with natGa) [natGa-1e]: in experiment [1], the Kd stood at 2.39 nM, the koff was found to be 0.0026 s⁻¹ and the kon is 1.1e+06 M⁻¹ s⁻¹. For the same molecule, in experiment [2], the Kd was found to be 4.47 nM.
For the molecule {(R)‑NODAGA}-CP[1Nal][dD]C[Mox][hArg]DWSTP[Hyp]WC-NH2 (linker 1-5-15 via TATA; also: NODAGA complexed with 68Ga) [[68Ga]Ga-4], the Kd in experiment [4] came out at 13.1 nM.
As to {DOTA}-CP[2Nal][dD]CMRDWSTP[Hyp]WC-OH (linker 1-5-15 via TATA) [8d (N188)], in experiment [1], the Kd was found to be 236 nM, the koff is 0.00881 s⁻¹ and the kon was determined as 40000 M⁻¹ s⁻¹. Besides, in experiment [2], the Kd was found to be 191 nM.
For the molecule {(R)‑NODAGA}-CP[1Nal][dD]C[SeMet][hArg]DWSTP[Hyp]WC-NH2 (linker 1-5-15 via TATA) [5], in experiment [2], the Kd is 1.37 nM.
On the same count and under the same terms, with {(R)‑NODAGA}-CP[1Nal][dD]C[Met(O)][hArg]DWSTP[Hyp]WC-NH2 (linker 1-5-15 via TATA; also: Met(O): mixture of diastereomers) [2] the figure was 25 nM; with Ac-CP[1Nal][dD]CM[hArg]DWSTP[Hyp]WC-NH2 (linker 1-5-15 via TATA) [1d (BCY8126)], 0.73 nM.
Consider {(R)‑NODAGA}-CP[1Nal][dD]CM[hArg]DWSTP[Hyp]WC-NH2 (linker 1-5-15 via TATA; also: NODAGA complexed with 64Cu) [[64Cu]Cu-1e], for which the “specific cell binding” value in experiment [3] turned out to be 159 fmol/mg. The Kd in experiment [4] was 7.15 nM.
Regarding {(R)‑NODAGA}-CP[1Nal][dD]CMRDWSTP[Hyp]WC-NH2 (linker 1-5-15 via TATA) [10], in experiment [1], the Kd turned out to be 2.51 nM, the koff stood at 0.00278 s⁻¹ and the kon was found to be 1.11e+06 M⁻¹ s⁻¹. The Kd in experiment [2] came to 0.61 nM.
As for {DOTA}-CP[2Nal][dD]CMRDWSTP[Hyp]WC-NH2 (linker 1-5-15 via TATA; also: DOTA complexed with 68Ga) [[68Ga]Ga-8c], in experiment [3], the “specific cell binding” value was 38.4 fmol/mg. Also, in experiment [4], the Kd turned out to be 103 nM.
Taken in the same sequence, the figures for {(R)‑NODAGA}-CP[1Nal][dD]CM[hArg]DWSTP[Hyp]WC-NH2 (linker 1-5-15 via TATA; also: NODAGA complexed with 68Ga) [[68Ga]Ga-1e] were 474 fmol/mg and 8.7 nM.
As to {DOTA}-CP[2Nal][dD]CMRDWSTP[Hyp]WC-NH2 (linker 1-5-15 via TATA) [8c], in experiment [1], the Kd was determined as 127 nM, the koff was 0.00239 s⁻¹ and the kon amounted to 20000 M⁻¹ s⁻¹. For the same molecule, the Kd in experiment [2] was determined as 149 nM.
For the molecule {(R)‑NODAGA}-CP[1Nal][dD]CM[hArg]DWSTP[Hyp]WC-NH2 (linker 1-5-15 via TATA; also: NODAGA complexed with natCu) [natCu-1e], in experiment [2], the Kd amounted to 0.23 nM.
The same measure, in the same setting: with Ac-CP[1Nal][dD]C[Nle][hArg]DWSTP[Hyp]WC-NH2 (linker 1-5-15 via TATA) [3b] the figure was 0.58 nM.
On to {(R)‑NODAGA}-CP[1Nal][dD]C[Nle][hArg]DWSTP[Hyp]WC-NH2 (linker 1-5-15 via TATA) [3a], for which the results for the Kd in experiment [1] and in experiment [2] were 1.31 nM and 1.04 nM, respectively.
With H-CP[1Nal][dD]CM[hArg]DWSTP[Hyp]WC-NH2 (linker 1-5-15 via TATA) [1c], the Kd in experiment [2] is 1.51 nM.
Take {(R)‑NODAGA}-CP[2Nal][dD]CM[hArg]DWSTP[Hyp]WC-NH2 (linker 1-5-15 via TATA) [9]: in experiment [1], the Kd was determined as 4.58 nM, the koff stood at 0.0765 s⁻¹ and the kon worked out at 1.69e+07 M⁻¹ s⁻¹. In addition, the Kd in experiment [2] was 11.5 nM.
The matching figures for {(R)‑NODAGA}-CP[1Nal][dD]CM[hArg]DWSTP[Hyp]WC-NH2 (linker 1-5-15 via TATA) [1e]: 3.6 nM, 0.00434 s⁻¹, 1.21e+06 M⁻¹ s⁻¹ and 0.77 nM.
As for {(R)‑NODAGA}-CP[1Nal][dD]C[Nle][hArg]DWSTP[Hyp]WC-NH2 (linker 1-5-15 via TATA; also: NODAGA complexed with natCu) [natCu-3a], the Kd in experiment [2] was 1.22 nM.
For {DOTA}-CP[2Nal][dD]CMRDWSTP[Hyp]WC-OH (linker 1-5-15 via TATA; also: DOTA complexed with 68Ga) [[68Ga]Ga-8d ([68Ga]Ga-N188)], the Kd in experiment [4] came out at 222 nM.

B1: 6 (peptide)
chain: {(R)‑NODAGA}-CP[1Nal][dD]C[Ser(et)][hArg]DWSTP[Hyp]WC-NH2
modifications: linker 1-5-15 via TATA
SMILES: CCOC[C@@H]1NC(=O)[C@@H]2CSCCC(=O)N3CN(CN(C3)C(=O)CCSC[C@H](NC(=O)CC[C@H](C(=O)O)N3CCN(CC(=O)O)CCN(CC(=O)O)CC3)C(=O)N3CCC[C@H]3C(=O)N[C@@H](Cc3cccc4ccccc34)C(=O)N[C@H](CC(=O)O)C(=O)N2)C(=O)CCSC[C@@H](C(N)=O)NC(=O)[C@H](Cc2c[nH]c3ccccc23)NC(=O)[C@@H]2C[C@@H](O)CN2C(=O)[C@@H]2CCCN2C(=O)[C@H]([C@@H](C)O)NC(=O)[C@H](CO)NC(=O)[C@H](Cc2c[nH]c3ccccc23)NC(=O)[C@H](CC(=O)O)NC(=O)[C@H](CCCCNC(=N)N)NC1=O
On to B1, for which, in experiment [1], the Kd is 6.29 nM, the off-rate constant (koff) stood at 0.0247 s⁻¹ and the kon came to 3.86e+06 M⁻¹ s⁻¹. Besides, in experiment [2], the Kd came out at 16.4 nM.

For the origin of these results see article PMC12557367, ““Precision on Two Wheels”–Structural Refinement of ^64Cu- and ^68Ga-Labeled Bicyclic Peptides Targeting Nectin‑4 for Improved Tumor Imaging: From Preclinical Development to First-in-Human Application” (Journal of Medicinal Chemistry, 2025).
